# Assay results: FireProtDB (doi:10.1126/science.aai7825)
# Conditions: Escherichia coli (strain K12); pH 7.5; Thermal; Intensity; HEPES 20mM; transition: 2
# Sequence of Adenylate kinase wild type, P69441 (P69441 whole entry): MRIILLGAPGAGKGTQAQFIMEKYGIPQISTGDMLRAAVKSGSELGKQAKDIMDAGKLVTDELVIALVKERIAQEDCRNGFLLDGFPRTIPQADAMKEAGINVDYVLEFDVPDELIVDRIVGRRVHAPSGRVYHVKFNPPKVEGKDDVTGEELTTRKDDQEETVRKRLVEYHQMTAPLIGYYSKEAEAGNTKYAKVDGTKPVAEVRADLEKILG
substance,measurement,value
"Adenylate kinase wild type, P69441",Tm,42.5 °C
